Reference: PMC10786891, “Massively parallel profiling of RNA-targeting CRISPR-Cas13d”
Positions count from the first letter of the chain named. In names and notes the source's numbering stands.

Target: T1, EsCas13d, nuclease-dead (Eubacterium siraeum, UniProt B0MS50, R295A;H300A;R849A;H854A)
T1 sequence: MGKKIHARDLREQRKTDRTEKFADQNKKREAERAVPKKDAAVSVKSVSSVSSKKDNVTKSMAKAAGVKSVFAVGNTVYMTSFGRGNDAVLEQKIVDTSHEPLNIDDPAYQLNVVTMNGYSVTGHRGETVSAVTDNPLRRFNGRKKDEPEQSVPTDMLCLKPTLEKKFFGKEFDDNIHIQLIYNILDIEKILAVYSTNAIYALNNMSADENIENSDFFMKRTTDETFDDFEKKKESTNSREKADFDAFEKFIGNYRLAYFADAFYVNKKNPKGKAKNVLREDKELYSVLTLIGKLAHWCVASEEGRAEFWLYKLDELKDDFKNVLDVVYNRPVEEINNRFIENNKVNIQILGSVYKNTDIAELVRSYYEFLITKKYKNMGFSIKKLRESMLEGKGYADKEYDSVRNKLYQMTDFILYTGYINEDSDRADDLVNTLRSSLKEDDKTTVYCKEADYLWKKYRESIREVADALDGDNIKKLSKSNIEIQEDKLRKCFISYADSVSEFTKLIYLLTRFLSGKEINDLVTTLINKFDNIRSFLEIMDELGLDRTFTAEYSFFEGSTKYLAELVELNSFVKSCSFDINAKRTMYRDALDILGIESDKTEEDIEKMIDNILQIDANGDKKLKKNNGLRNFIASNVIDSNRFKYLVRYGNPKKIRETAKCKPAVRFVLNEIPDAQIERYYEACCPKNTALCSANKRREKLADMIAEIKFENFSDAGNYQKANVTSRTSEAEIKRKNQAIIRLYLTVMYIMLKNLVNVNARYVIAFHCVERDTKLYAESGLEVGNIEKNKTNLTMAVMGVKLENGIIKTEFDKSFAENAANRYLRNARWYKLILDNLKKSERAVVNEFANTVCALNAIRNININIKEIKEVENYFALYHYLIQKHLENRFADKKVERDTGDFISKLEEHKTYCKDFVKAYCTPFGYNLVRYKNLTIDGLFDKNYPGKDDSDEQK
Test: crRNA (strand 1, pre-loaded); Mg2+; 40 mM Tris-HCl pH 7.5, 150 mM NaCl, 6 mM MgCl2, 1 mM DTT, 0.1% Tween-20, 0.2 mg/ml BSA; 25 C; 10 min per concentration, then washed
Conditions: tags: His6-TwinStrep-SUMO cleaved; N-terminal SNAP kept (SNAP-Surface 488); label: 3' end held by stalled T7 RNA polymerase

B1: target 1 insC 3' of 22,insC 3' of 8 (mixed)
RNA 1: CACCCGUGCAAAAAUGCAGGGGUCUAAAACUGAGCGGAUAACCUCUCUAUGG
RNA 2: GGGAAUGGAUCCACAUCUACGAAUUCGUACCCAUAGAGAGGUUAUCCCGCUCACCGAGAUCGGAAGAGCACACGU
  Kd: 18 ± 1.8 nM

B2: target 1 insU 3' of 14,insU 3' of 2 (mixed)
RNA 1: B1 RNA 1
RNA 2: GGGAAUGGAUCCACAUCUACGAAUUCGUACCAUAGAGAUGGUUAUCCGCUCUACCGAGAUCGGAAGAGCACACGU
  Kd: 57 ± 8 nM

B3: target 1 insA 3' of 12,insA 3' of 5 (mixed)
RNA 1: B1 RNA 1
RNA 2: B2 RNA 2 with U39G, G41A, C49A, U50C, C51U, U52C
  Kd: 17.4 ± 1.6 nM

B4: target 1 G12A,G13U (mixed)
RNA 1: B1 RNA 1
RNA 2: GGGAAUGGAUCCACAUCUACGAAUUCGUACCAUAGAGAUAUUAUCCGCUCACCGAGAUCGGAAGAGCACACGU
  Kd: 14.6 ± 1.4 nM

B5: target 1 C2A (mixed)
RNA 1: B1 RNA 1
RNA 2: B4 RNA 2 with U39G, A40G, C50A
  Kd: 9.3 ± 0.9 nM

B6: target 1 insC 3' of 13,insU 3' of 13 (mixed)
RNA 1: B1 RNA 1
RNA 2: GGGAAUGGAUCCACAUCUACGAAUUCGUACCAUAGAGAGCUGUUAUCCGCUCACCGAGAUCGGAAGAGCACACGU
  Kd: 8.3 ± 0.4 nM

B7: target 1 C2U,G15A (mixed)
RNA 1: B1 RNA 1
RNA 2: B4 RNA 2 with G37A, U39G, A40G, C50U
  Kd: 13.7 ± 0.7 nM

B8: target 1 G12U,G13U (mixed)
RNA 1: B1 RNA 1
RNA 2: B4 RNA 2 with A40U
  Kd: 7.2 ± 0.5 nM

B9: target 1 insC 3' of 15,insG 3' of 11 (mixed)
RNA 1: B1 RNA 1
RNA 2: B6 RNA 2 with A38C, G39A, C40G, U41G, G42U, U43G
  Kd: 41 ± 6 nM

B10: target 1 insA 3' of 12,insG 3' of 4 (mixed)
RNA 1: B1 RNA 1
RNA 2: B2 RNA 2 with U39G, G41A, U50G, C51U, U52C
  Kd: 16.2 ± 1.1 nM

B11: target 1 C2A,U19C (mixed)
RNA 1: B1 RNA 1
RNA 2: B4 RNA 2 with U33C, U39G, A40G, C50A
  Kd: 22.1 ± 1.6 nM

B12: target 1 A1C,C2A (mixed)
RNA 1: B1 RNA 1
RNA 2: B4 RNA 2 with U39G, A40G, C50A, A51C
  Kd: 36 ± 4 nM

B13: target 1 insC 3' of 15,insG 3' of 8 (mixed)
RNA 1: B1 RNA 1
RNA 2: B6 RNA 2 with A38C, G39A, C40G, U41G, G42U, U44A, A45U, U46G
  Kd: 23.3 ± 2.2 nM

B14: target 1 insG 3' of 16,insU 3' of 14 (mixed)
RNA 1: B1 RNA 1
RNA 2: B6 RNA 2 with A38G, G39A, C40U, U41G
  Kd: 25.4 ± 2.4 nM

B15: target 1 insU 3' of 13,insG 3' of 2 (mixed)
RNA 1: B1 RNA 1
RNA 2: B2 RNA 2 with U39G, G40U, U52G
  Kd: 21 ± 4 nM

B16: target 1 G5U,G13A (mixed)
RNA 1: B1 RNA 1
RNA 2: B4 RNA 2 with U39A, A40G, G47U
  Kd: 11.5 ± 0.5 nM

B17: target 1 A18U,C22U (mixed)
RNA 1: B1 RNA 1
RNA 2: B4 RNA 2 with C30U, A34U, U39G, A40G
  Kd: 74 ± 10 nM

B18: target 1 C7G,U8C (mixed)
RNA 1: B1 RNA 1
RNA 2: B4 RNA 2 with U39G, A40G, U44C, C45G
  Kd: 10.7 ± 0.4 nM

B19: target 1 insG 3' of 6,insU 3' of 2 (mixed)
RNA 1: B1 RNA 1
RNA 2: B2 RNA 2 with U39G, G41U, U43A, A44U, U45C, C47G
  Kd: 16.4 ± 0.9 nM

B20: target 1 insG 3' of 21,insA 3' of 13 (mixed)
RNA 1: B1 RNA 1
RNA 2: B1 RNA 2 with C32G, G41A, U42G, A44U, U45A, C46U
  Kd: 44 ± 5 nM

B21: target 1 insG 3' of 9,insG 3' of 7 (mixed)
RNA 1: B1 RNA 1
RNA 2: B6 RNA 2 with C40G, G42U, U43A, U44G, A45U, U46C, C47G
  Kd: 10.7 ± 0.4 nM

B22: target 1 insA 3' of 10,insC 3' of 10 (mixed)
RNA 1: B1 RNA 1
RNA 2: B6 RNA 2 with C40G, G42U, U43A, U44C
  Kd: 12.9 ± 1.3 nM

B23: target 1 U8A,C22G (mixed)
RNA 1: B1 RNA 1
RNA 2: B4 RNA 2 with C30G, U39G, A40G, U44A
  Kd: 68 ± 13 nM

B24: target 1 insA 3' of 8,insG 3' of 3 (mixed)
RNA 1: B1 RNA 1
RNA 2: B2 RNA 2 with U39G, G41U, U43A, A44U, U45A, C51G, U52C
  Kd: 10 ± 0.7 nM

B25: target 1 insU 3' of 9,insA 3' of 4 (mixed)
RNA 1: B1 RNA 1
RNA 2: B2 RNA 2 with U39G, G41U, U43A, A44U, U50A, C51U, U52C
  Kd: 8 ± 1 nM

B26: target 1 insA 3' of 13,insA 3' of 13 (mixed)
RNA 1: B1 RNA 1
RNA 2: B6 RNA 2 with C40A, U41A
  Kd: 7.9 ± 0.4 nM

B27: target 1 insA 3' of 10,insG 3' of 4 (mixed)
RNA 1: B1 RNA 1
RNA 2: B2 RNA 2 with U39G, G41U, U43A, U50G, C51U, U52C
  Kd: 6.44 ± 0.26 nM

B28: target 1 insG 3' of 16,insU 3' of 16 (mixed)
RNA 1: B1 RNA 1
RNA 2: B6 RNA 2 with A38U, C40A, U41G
  Kd: 44 ± 8 nM

B29: target 1 U3A,G5A (mixed)
RNA 1: B1 RNA 1
RNA 2: B4 RNA 2 with U39G, A40G, G47A, U49A
  Kd: 53 ± 8 nM

B30: target 1 insU 3' of 12,insG 3' of 2 (mixed)
RNA 1: B1 RNA 1
RNA 2: B2 RNA 2 with U39G, G41U, U52G
  Kd: 6.9 ± 0.6 nM

B31: target 1 C2G,G17U (mixed)
RNA 1: B1 RNA 1
RNA 2: B4 RNA 2 with G35U, U39G, A40G, C50G
  Kd: 14.5 ± 0.7 nM

B32: target 1 U10A,C22A (mixed)
RNA 1: B1 RNA 1
RNA 2: B4 RNA 2 with C30A, U39G, A40G, U42A
  Kd: 12.5 ± 1.2 nM

B33: target 1 insU 3' of 17,insC 3' of 3 (mixed)
RNA 1: B1 RNA 1
RNA 2: B2 RNA 2 with A36U, G37A, A38G, U39A, U52C
  Kd: 29 ± 5 nM

B34: target 1 insC 3' of 17,insA 3' of 4 (mixed)
RNA 1: B1 RNA 1
RNA 2: B2 RNA 2 with A36C, G37A, A38G, U39A, U50A, C51U, U52C
  Kd: 28.6 ± 2.3 nM
